# From the RNAGym collection of RNA variant scans (doi:10.1093/molbev/msab373)
# B1: Azoarcus group I ribozyme (parent)
# chain: GUGCCUUGCGCCGGGAAACCACGCAAGGGAUGGUGUCAAAUUCGGCGAAACCUAAGCGCCCGCCCGGGCGUAUGGCAACGCCGAGCCAAGCUUCGGCGCCUGCGCCGAUGAAGGUGUAGAGACUAGACGGCACCCACCUAAGGCAAACGCUAUGGUGAAGGCAUAGUCCAGGGAGUGGCGAAAGUCACACAAACCGG
# Variants of: B1
# Assay: reverse-splicing fitness (ratio to wild type); higher = more active; in vitro selection; Mg2+ level not given
# Method in brief: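 An in vitro group I ribozyme library with randomized positions was T7-transcribed and gel-purified. In triplicate, 10 pmol RNA in EPPS pH 7.5 was reacted with 50 pmoles of a 30-nt RNA substrate for 1 h at 37 °C across several added MgCl2 levels (1–48 mM), then stopped with EDTA. Products were reverse transcribed from a substrate-complementary primer, PCR-amplified and sequenced (HiSeq 4000). Fitness is a variant's read proportion after selection over that before, normalised to wild type.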
row,Variant,reverse-splicing fitness
1,GUGCCUUGCGCCGGGAAACCACGCAAGGGAUGGUGUCAAAUUCGGCGAAACCUAAGCGCCCGCCCGGGCGUAUGGCAACGCCGAGCCAAGCUUCGGCGCCUGCGCCGAUGGAGGUGUAGAGACUAGACGGCACCCACCUAAGGCUAACGAUAUGGUGAAGGCAUAGUCAAGGGAGGGGCGAAAGUCACACAAACCGG [A111G A145U C150A C169A U176G],0.00565
2,GUGCCUUGCGCCGGGAAACCACGCAAGGGAUGGUGUCAAAUUCGGCGAAACCUAAGCGCCCGCCCGGGCGUAUGGCAACGCCGAGCCAAGCUUCGGCGCCUGCGCCGAUGGAGGUGUAGAGACUAGACGGCACCCACCUAAGGCUAACGAUAUGGUGAAGGCAUAGUCAAGGGAGCGGCGAAAGUCACACAAACCGG [A111G A145U C150A C169A U176C],0.00843
3,GUGCCUUGCGCCGGGAAACCACGCAAGGGAUGGUGUCAAAUUCGGCGAAACCUAAGCGCCCGCCCGGGCGUAUGGCAACGCCGAGCCAAGCUUCGGCGCCUGCGCCGAUGGAGGUGUAGAGACUAGACGGCACCCACCUAAGGCUAACGAUAUGGUGAAGGCAUAGUCAAGGGAGAGGCGAAAGUCACACAAACCGG [A111G A145U C150A C169A U176A],0.0121
4,GUGCCUUGCGCCGGGAAACCACGCAAGGGAUGGUGUCAAAUUCGGCGAAACCUAAGCGCCCGCCCGGGCGUAUGGCAACGCCGAGCCAAGCUUCGGCGCCUGCGCCGAUGGAGGUGUAGAGACUAGACGGCACCCACCUAAGGCUAACGAUAUGGUGAAGGCAUAGUCAAGGGAGUGGCGAAAGUCACACAAACCGG [A111G A145U C150A C169A],0.0105
5,GUGCCUUGCGCCGGGAAACCACGCAAGGGAUGGUGUCAAAUUCGGCGAAACCUAAGCGCCCGCCCGGGCGUAUGGCAACGCCGAGCCAAGCUUCGGCGCCUGCGCCGAUGGAGGUGUAGAGACUAGACGGCACCCACCUAAGGCUAACGAUAUGGUGAAGGCAUAGUCUAGGGAGUGGCGAAAGUCACACAAACCGG [A111G A145U C150A C169U],0.0232
6,GUGCCUUGCGCCGGGAAACCACGCAAGGGAUGGUGUCAAAUUCGGCGAAACCUAAGCGCCCGCCCGGGCGUAUGGCAACGCCGAGCCAAGCUUCGGCGCCUGCGCCGAUGGAGGUGUAGAGACUAGACGGCACCCACCUAAGGCUAACGAUAUGGUGAAGGCAUAGUCGAGGGAGUGGCGAAAGUCACACAAACCGG [A111G A145U C150A C169G],0.016
7,GUGCCUUGCGCCGGGAAACCACGCAAGGGAUGGUGUCAAAUUCGGCGAAACCUAAGCGCCCGCCCGGGCGUAUGGCAACGCCGAGCCAAGCUUCGGCGCCUGCGCCGAUGGAGGUGUAGAGACUAGACGGCACCCACCUAAGGCUAACGAUAUGGUGAAGGCAUAGUCCAGGGAGAGGCGAAAGUCACACAAACCGG [A111G A145U C150A U176A],0.224
8,GUGCCUUGCGCCGGGAAACCACGCAAGGGAUGGUGUCAAAUUCGGCGAAACCUAAGCGCCCGCCCGGGCGUAUGGCAACGCCGAGCCAAGCUUCGGCGCCUGCGCCGAUGGAGGUGUAGAGACUAGACGGCACCCACCUAAGGCUAACGAUAUGGUGAAGGCAUAGUCCAGGGAGCGGCGAAAGUCACACAAACCGG [A111G A145U C150A U176C],0.237
9,GUGCCUUGCGCCGGGAAACCACGCAAGGGAUGGUGUCAAAUUCGGCGAAACCUAAGCGCCCGCCCGGGCGUAUGGCAACGCCGAGCCAAGCUUCGGCGCCUGCGCCGAUGGAGGUGUAGAGACUAGACGGCACCCACCUAAGGCUAACGAUAUGGUGAAGGCAUAGUCCAGGGAGGGGCGAAAGUCACACAAACCGG [A111G A145U C150A U176G],0.121
10,GUGCCUUGCGCCGGGAAACCACGCAAGGGAUGGUGUCAAAUUCGGCGAAACCUAAGCGCCCGCCCGGGCGUAUGGCAACGCCGAGCCAAGCUUCGGCGCCUGCGCCGAUGGAGGUGUAGAGACUAGACGGCACCCACCUAAGGCGAACGCUAUGGUGAAGGCAUAGUCGAGGGAGUGGCGAAAGUCACACAAACCGG [A111G A145G C169G],0.118
11,GUGCCUUGCGCCGGGAAACCACGCAAGGGAUGGUGUCAAAUUCGGCGAAACCUAAGCGCCCGCCCGGGCGUAUGGCAACGCCGAGCCAAGCUUCGGCGCCUGCGCCGAUGGAGGUGUAGAGACUAGACGGCACCCACCUAAGGCGAACGCUAUGGUGAAGGCAUAGUCUAGGGAGUGGCGAAAGUCACACAAACCGG [A111G A145G C169U],0.19
12,GUGCCUUGCGCCGGGAAACCACGCAAGGGAUGGUGUCAAAUUCGGCGAAACCUAAGCGCCCGCCCGGGCGUAUGGCAACGCCGAGCCAAGCUUCGGCGCCUGCGCCGAUGGAGGUGUAGAGACUAGACGGCACCCACCUAAGGCUAACGAUAUGGUGAAGGCAUAGUCUAGGGAGAGGCGAAAGUCACACAAACCGG [A111G A145U C150A C169U U176A],0.0162
13,GUGCCUUGCGCCGGGAAACCACGCAAGGGAUGGUGUCAAAUUCGGCGAAACCUAAGCGCCCGCCCGGGCGUAUGGCAACGCCGAGCCAAGCUUCGGCGCCUGCGCCGAUGGAGGUGUAGAGACUAGACGGCACCCACCUAAGGCUAACGAUAUGGUGAAGGCAUAGUCUAGGGAGCGGCGAAAGUCACACAAACCGG [A111G A145U C150A C169U U176C],0.0165
14,GUGCCUUGCGCCGGGAAACCACGCAAGGGAUGGUGUCAAAUUCGGCGAAACCUAAGCGCCCGCCCGGGCGUAUGGCAACGCCGAGCCAAGCUUCGGCGCCUGCGCCGAUGGAGGUGUAGAGACUAGACGGCACCCACCUAAGGCUAACGAUAUGGUGAAGGCAUAGUCUAGGGAGGGGCGAAAGUCACACAAACCGG [A111G A145U C150A C169U U176G],0.00519
15,GUGCCUUGCGCCGGGAAACCACGCAAGGGAUGGUGUCAAAUUCGGCGAAACCUAAGCGCCCGCCCGGGCGUAUGGCAACGCCGAGCCAAGCUUCGGCGCCUGCGCCGAUGGAGGUGUAGAGACUAGACGGCACCCACCUAAGGCGAACGCUAUGGUGAAGGCAUAGUCGAGGGAGAGGCGAAAGUCACACAAACCGG [A111G A145G C169G U176A],0.0326
16,GUGCCUUGCGCCGGGAAACCACGCAAGGGAUGGUGUCAAAUUCGGCGAAACCUAAGCGCCCGCCCGGGCGUAUGGCAACGCCGAGCCAAGCUUCGGCGCCUGCGCCGAUGGAGGUGUAGAGACUAGACGGCACCCACCUAAGGCGAACGCUAUGGUGAAGGCAUAGUCGAGGGAGCGGCGAAAGUCACACAAACCGG [A111G A145G C169G U176C],0.0596
17,GUGCCUUGCGCCGGGAAACCACGCAAGGGAUGGUGUCAAAUUCGGCGAAACCUAAGCGCCCGCCCGGGCGUAUGGCAACGCCGAGCCAAGCUUCGGCGCCUGCGCCGAUGGAGGUGUAGAGACUAGACGGCACCCACCUAAGGCGAACGCUAUGGUGAAGGCAUAGUCGAGGGAGGGGCGAAAGUCACACAAACCGG [A111G A145G C169G U176G],0.00638
18,GUGCCUUGCGCCGGGAAACCACGCAAGGGAUGGUGUCAAAUUCGGCGAAACCUAAGCGCCCGCCCGGGCGUAUGGCAACGCCGAGCCAAGCUUCGGCGCCUGCGCCGAUGGAGGUGUAGAGACUAGACGGCACCCACCUAAGGCUAACGAUAUGGUGAAGGCAUAGUCGAGGGAGAGGCGAAAGUCACACAAACCGG [A111G A145U C150A C169G U176A],0.014
19,GUGCCUUGCGCCGGGAAACCACGCAAGGGAUGGUGUCAAAUUCGGCGAAACCUAAGCGCCCGCCCGGGCGUAUGGCAACGCCGAGCCAAGCUUCGGCGCCUGCGCCGAUGGAGGUGUAGAGACUAGACGGCACCCACCUAAGGCUAACGAUAUGGUGAAGGCAUAGUCGAGGGAGCGGCGAAAGUCACACAAACCGG [A111G A145U C150A C169G U176C],0.0131
20,GUGCCUUGCGCCGGGAAACCACGCAAGGGAUGGUGUCAAAUUCGGCGAAACCUAAGCGCCCGCCCGGGCGUAUGGCAACGCCGAGCCAAGCUUCGGCGCCUGCGCCGAUGGAGGUGUAGAGACUAGACGGCACCCACCUAAGGCUAACGAUAUGGUGAAGGCAUAGUCGAGGGAGGGGCGAAAGUCACACAAACCGG [A111G A145U C150A C169G U176G],0.00512
21,GUGCCUUGCGCCGGGAAACCACGCAAGGGAUGGUGUCAAAUUCGGCGAAACCUAAGCGCCCGCCCGGGCGUAUGGCAACGCCGAGCCAAGCUUCGGCGCCUGCGCCGAUGGAGGUGUAGAGACUAGACGGCACCCACCUAAGGCUAACGCUAUGGUGAAGGCAUAGUCCAGGGAGUGGCGAAAGUCACACAAACCGG [A111G A145U],0.957
22,GUGCCUUGCGCCGGGAAACCACGCAAGGGAUGGUGUCAAAUUCGGCGAAACCUAAGCGCCCGCCCGGGCGUAUGGCAACGCCGAGCCAAGCUUCGGCGCCUGCGCCGAUGGAGGUGUAGAGACUAGACGGCACCCACCUAAGGCGAACGCUAUGGUGAAGGCAUAGUCUAGGGAGAGGCGAAAGUCACACAAACCGG [A111G A145G C169U U176A],0.0478
23,GUGCCUUGCGCCGGGAAACCACGCAAGGGAUGGUGUCAAAUUCGGCGAAACCUAAGCGCCCGCCCGGGCGUAUGGCAACGCCGAGCCAAGCUUCGGCGCCUGCGCCGAUGGAGGUGUAGAGACUAGACGGCACCCACCUAAGGCGAACGCUAUGGUGAAGGCAUAGUCUAGGGAGGGGCGAAAGUCACACAAACCGG [A111G A145G C169U U176G],0.00661
24,GUGCCUUGCGCCGGGAAACCACGCAAGGGAUGGUGUCAAAUUCGGCGAAACCUAAGCGCCCGCCCGGGCGUAUGGCAACGCCGAGCCAAGCUUCGGCGCCUGCGCCGAUGGAGGUGUAGAGACUAGACGGCACCCACCUAAGGCGAACGCUAUGGUGAAGGCAUAGUCUAGGGAGCGGCGAAAGUCACACAAACCGG [A111G A145G C169U U176C],0.0655
25,GUGCCUUGCGCCGGGAAACCACGCAAGGGAUGGUGUCAAAUUCGGCGAAACCUAAGCGCCCGCCCGGGCGUAUGGCAACGCCGAGCCAAGCUUCGGCGCCUGCGCCGAUGGAGGUGUAGAGACUAGACGGCACCCACCUAAGGCGAACGCUAUGGUGAAGGCAUAGUCCAGGGAGGGGCGAAAGUCACACAAACCGG [A111G A145G U176G],0.333
26,GUGCCUUGCGCCGGGAAACCACGCAAGGGAUGGUGUCAAAUUCGGCGAAACCUAAGCGCCCGCCCGGGCGUAUGGCAACGCCGAGCCAAGCUUCGGCGCCUGCGCCGAUGGAGGUGUAGAGACUAGACGGCACCCACCUAAGGCGAACGCUAUGGUGAAGGCAUAGUCCAGGGAGAGGCGAAAGUCACACAAACCGG [A111G A145G U176A],0.751
27,GUGCCUUGCGCCGGGAAACCACGCAAGGGAUGGUGUCAAAUUCGGCGAAACCUAAGCGCCCGCCCGGGCGUAUGGCAACGCCGAGCCAAGCUUCGGCGCCUGCGCCGAUGGAGGUGUAGAGACUAGACGGCACCCACCUAAGGCGAACGCUAUGGUGAAGGCAUAGUCCAGGGAGCGGCGAAAGUCACACAAACCGG [A111G A145G U176C],0.779
28,GUGCCUUGCGCCGGGAAACCACGCAAGGGAUGGUGUCAAAUUCGGCGAAACCUAAGCGCCCGCCCGGGCGUAUGGCAACGCCGAGCCAAGCUUCGGCGCCUGCGCCGAUGGAGGUGUAGAGACUAGACGGCACCCACCUAAGGCUAACGGUAUGGUGAAGGCAUAGUCAAGGGAGUGGCGAAAGUCACACAAACCGG [A111G A145U C150G C169A],0.0108
29,GUGCCUUGCGCCGGGAAACCACGCAAGGGAUGGUGUCAAAUUCGGCGAAACCUAAGCGCCCGCCCGGGCGUAUGGCAACGCCGAGCCAAGCUUCGGCGCCUGCGCCGAUGGAGGUGUAGAGACUAGACGGCACCCACCUAAGGCUAACGAUAUGGUGAAGGCAUAGUCCAGGGAGUGGCGAAAGUCACACAAACCGG [A111G A145U C150A],0.365
30,GUGCCUUGCGCCGGGAAACCACGCAAGGGAUGGUGUCAAAUUCGGCGAAACCUAAGCGCCCGCCCGGGCGUAUGGCAACGCCGAGCCAAGCUUCGGCGCCUGCGCCGAUGGAGGUGUAGAGACUAGACGGCACCCACCUAAGGCUAACGGUAUGGUGAAGGCAUAGUCCAGGGAGUGGCGAAAGUCACACAAACCGG [A111G A145U C150G],0.449
